{"source": "patent US20150273076A1", "about": "“SP1 POLYPEPTIDES, MODIFIED SP1 POLYPEPTIDES AND USES THEREOF” (Fulcrum SP Ltd., priority 2006, published 2015)", "key": {"[1]": {"experiment": "Protein melting point by DSC", "format": "physicochemical", "experimental": "Differential scanning calorimetry study of SP1 indicates in a Tm of 107° C. for SP1. […] Further, folding and refolding of inclusion bodies including insoluble SP1, and the heat stability of the unfolded proteins indicate that the intact monomer, as well as the oligomer, is heat resistant (FIG. 5)."}, "[2]": {"experiment": "Resistance of SP1 complex to organic solvents", "format": "physicochemical", "experimental": "150 ul of 1 mg/ml samples in 10 mM sodium phosphate pH 7 were lyophilized overnight and resuspended in 150 μl organic solvents for 10 minutes. Following a 30 minutes speed vac the samples were resuspended in 150 μl water and analyzed by SDS-PAGE.\nIn order to further test the stability of SP1 and SP1 oligomeric complexes, wild type SP1 and the SP1 variant Cys2 SP1 were dissolved in buffer, exposed to organic solvents methanol and hexane, and analyzed by SDS-PAGE (FIG. 18).\nIn order to determine the stability of the SP1 complex in organic solvents, SP1 and Cys2 SP1-variant (SEQ ID NO: 3) were dissolved in organic solvents, dried, reconstituted with aqueous solvent, and separated on SDS-PAGE."}, "[3]": {"experiment": "Fluorescein-amine complex formation (ultrafiltration, size exclusion HPLC)", "format": "binding", "experimental": "FIG. 9 is a histogram showing redox-dependent complex formation with small molecules by Cys2 SP1. Pure Cys 2 mutant (1.5 mg/ml in Phosphate buffered saline, pH=7.5 (PBS)) was incubated for 2 hours at room temp, with I mM fluorescein-amine with or without glutathione (reduced form, GSH 3 mM). Binding reaction was stopped by adding hydrogen peroxide (0.01%), followed by ultra filtration (using a 30 kD cutoff filter) and extensive wash. Absorption analysis was conducted at both 278 and 492 nm, and the results expressed as the 492/278 ratio. Note that in the absence of the reducing agent (GSH), retention of the flourescein-amine is negligible;\nFIG. 10 is a graphic representation of the redox-dependent fluorescein amine complex formation by Cys2 SP1, compared to the recombinant SP1. Fluorescein-amine was incubated with pure SP1 or Cys2 SP1 mutant (1.5 mg/ml in PBS pH=7.5) in the absence or presence of DTT (10 mM). Binding reaction was stopped by adding hydrogen peroxide (0.01%), followed by ultra filtration (using 30 kD cutoff filter) and extensive wash. Samples were analyzed by Gel filtration HPLC, and detected at both 228 and 490 nm. Calculated data is shown on the right.\nFIG. 11 is a histogram illustrating the concentration dependent complex formation with fluorescein-amine by Cys2 SP1. Huorescien-amine (10, 33, 100 or 333 mM) was incubated with Cys 2 SP1 or pure wild type SP1 in the presence of 10 mM DTT, and the bound and unbound fractions analyzed by ultra-filtration and HPLC as in FIG. 10.\nUltrafiltration was used for the detection of complex formation with the water soluble ligands FA and DOX which have a distinctive absorption properties and can be determined by spectroscopic measurements. […] Several additional washing cycles remove all remaining free FA and DOX, and the ligand-SP1 complex remains in the retained fraction.\nSize exclusion chromatography is a common method for separation of molecules of different sizes under mild conditions and was employed to test FA and DOX complex formation under mild conditions. SP1 is eluted from the column after 7 min and is detected at 278 nm only, and free FA is eluted from the column (TSK G3000 SWXL, Tosohaas) after 16 min and is detected at 490 nm. The SP1-FA and SP1-DOX complexes also eluted at the same time but is detected also at 490 and 475 nm, respectively. DOX/SP1 ratio is determine from the standard curve obtained in solution.\n5. Can complexed ligand be stabilized by association with the Cys2 SP1? Fluoresceine amine (FA): FA absorption peak is at 490 nm and at much lower extend at 278 nm (for a given FA concentration OD278/OD490=0.19)(see FIG. 31), when SP1 absorption peak is at 278 nm (see FIG. 30), and it is not detected at 490 nm. […] FA complexing with the Cys2 Sp1 variant was determined following incubation of FA and Cys2 SP1 variant in the absence or presence of GSH, followed by protein oxidation, ultra filtration (30 kDa cutoff) and exhaustive wash of the retained fraction with PBS with or without GSH. Absorption analysis at both 278 and 490 nm."}, "[4]": {"test_system": "Human colon adenocarcinoma (HT-29) cells", "experiment": "In-vitro cytotoxicity in HT-29 cells", "format": "cell-based", "settings": "HT-29 cells, dose inhibiting 50% of cell growth", "text": "FIGS. 24a and 24b are graphs illustrating the in-vitro cytotoxic effects of SP1-DOX complex. FIG. 24a—HT-29 cells cultured in 96 well microtiter plates were exposed to uncomplexed DOX (closed oval, magenta) or SP1-DOX complex (closed triangle, blue) prepared as described in FIGS. 9-15, at the indicated concentrations. FIG. 24b—HT-29 cells were exposed to uncomplexed SP1 (without DOX) (closed diamond, blue) or SP1-DOX complex (closed triangle, yellow) at indicated concentrations. Proportion of living cells was determined by MTT assay, and the IC50 was calculated.\nHT-29 cells were prepared as in FIG. 24 above.\nHuman colon adenocarcinoma (HT-29) cells. The cells were grown in 50-ml flasks containing DMEM medium (Biological Industries, Bet Haemek), supplemented with 10% fetal calf serum, 1% glutamine and 1% Antibiotic-Antimicotic solution (Biolab, Israel). The cells were trypsinizated, and 2 ml medium containing 5×10^4 cells were plated in each well of a 6-wells plate. SP1, drugs or SP1-complexed with drugs was added at the indicated concentrations. The cells were incubated at 37° C. in a humidified atmosphere containing 5% CO2.After 48 hours the medium in the presence or absence of drugs was replaced in each well respectively, to maintain a constant supply of ingredients and drugs. After four days the medium was removed and the number of viable cells in the cultures was determined by spectroscopy.\nThe human colorectal adenocarcinoma cell line, HT-29, was used to evaluate the biological activity of the SP1-DOX complex, compared to that of the free drug and un-complexed SP1 protein. […] Thus, the SP1-DOX complex is at least as biologically active as free DOX."}, "[5]": {"experiment": "Immunogenicity: anti SP1 antibody production by ELISA", "format": "in vivo, C57B1 mice", "settings": "after repetitive injections", "text": "In order to determine the degree of immunogenicity of SP1, anti SP1 antibody production in both PBS- and SP1-treated animals was detected using ELISA, using either directly immobilized SP1 or rabbit anti SP1 antibodies (second antibody was HRP conjugated anti mouse IgG). Serum obtained from both PBS- and SP1-treated animals had negligible anti-SP1 antibody reaction, with no difference between the two groups."}, "[6]": {"experiment": "Heat stability (no precipitation after heat treatment)", "settings": "10 min at 100° C. or 30 min at 85° C."}}, "data": [{"substance": "wild type: stress related SP1 protein from aspen (Populus tremula), recombinant, SEQ ID NO:1", "values": [{"measurement": "Tm", "setting": "[1]; Differential scanning calorimetry", "value": 107, "unit": "°C"}, {"measurement": "Tm", "setting": "[1]; protein melting point by DSC, in °C (unit assumed)", "value": 107}, {"measurement": "protease resistance after hexane treatment", "setting": "[2]; hexane-treated, data not shown", "value": "resistance to protease treatment"}, {"measurement": "resistance of oligomeric complex to organic solvents", "setting": "[2]; methanol, hexane, SDS-PAGE", "value": "Predominantly high molecular weight oligomer complex form"}, {"measurement": "FA complexing at low ligand concentration", "setting": "[3]; 10 μM FA, 10 mM DTT", "value": "no discernable FA complexing"}, {"measurement": "complex formation with the FA marker", "setting": "[3]; presence or absence of reducing agents, size exclusion chromatography", "value": "hardly forms complexes"}, {"measurement": "IC50", "setting": "[4]; listed as SP1", "value": "inactive"}, {"measurement": "IC50", "setting": "[4]; listed as SP-1", "value": "absence of cytotoxicity"}, {"measurement": "anti-SP1 antibody reaction in serum", "setting": "[5]", "value": "negligible"}, {"measurement": "Heat stability", "setting": "[6]", "value": "+"}]}]}
